This data set concerns the target T1, UB2 (UNBRANCHED2), GST fusion (Zea mays, UniProt A0A804LTB0 =M+82-402, internal_change).
T1 sequence: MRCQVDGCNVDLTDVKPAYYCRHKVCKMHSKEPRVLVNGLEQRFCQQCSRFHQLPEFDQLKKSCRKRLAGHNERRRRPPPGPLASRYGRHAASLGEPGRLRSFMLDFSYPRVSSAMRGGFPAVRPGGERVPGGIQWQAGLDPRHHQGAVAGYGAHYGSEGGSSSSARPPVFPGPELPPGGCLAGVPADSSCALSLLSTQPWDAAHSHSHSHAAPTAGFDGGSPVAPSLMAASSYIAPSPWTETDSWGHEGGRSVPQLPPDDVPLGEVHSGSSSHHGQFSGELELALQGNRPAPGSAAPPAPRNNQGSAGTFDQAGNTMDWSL
In words: EMSA; poly(dI-dC), 5 mM MgCl2; EMSA: 10 mM Tris pH 7.5, 50 mM KCl, 1 mM DTT, 5 mM MgCl2, 2.5% glycerol, poly(dI-dC), 0.05% NP-40; 20-40 ng protein, probe 10 fM (so in the source); room temperature. Conditions: protein: recombinant; tags: N-GST (pGEX-4T-1); label: 5'-biotin; blunt. Background: In EMSA bound probe runs differently from free probe, usually more slowly.

B1: pUB3-P1 probe (EPUB3) (dsDNA)
DNA 1: GCCGAGGGCTTTTTGTAGACGCCAGGTACTTGCGCTTGTGGCGGCGAGCCGAGCG
DNA 2: CGCTCGGCTCGCCGCCACAAGCGCAAGTACCTGGCGTCTACAAAAAGCCCTCGGC
As for B1, the binding result is “binds”.

B2: KRN4-P4 probe (EP4) (dsDNA)
DNA 1: GCGTGTTGCCTACTTGCACTAGAGAGTACGTGAGGCAAACCAAATGTTTTCTAGCGAAC
DNA 2: GTTCGCTAGAAAACATTTGGTTTGCCTCACGTACTCTCTAGTGCAAGTAGGCAACACGC
As to B2, the binding result is given as “binds”.

The values above are taken from publication PMC7202667, “UNBRANCHED3 Expression and Inflorescence Development is Mediated by UNBRANCHED2 and the Distal Enhancer, KRN4, in Maize”.
